The target of assay [1] is T1, B7-H6 polypeptide on cells (BA/F3-B7-H6 transfectants; cell lines expressing B7-H6 endogenously) (human, UniProt Q68D85 25-454).
T1 construct: whole, on cells; The construct used for the BA/F3 transfectants is not described
T1 sequence (looked up): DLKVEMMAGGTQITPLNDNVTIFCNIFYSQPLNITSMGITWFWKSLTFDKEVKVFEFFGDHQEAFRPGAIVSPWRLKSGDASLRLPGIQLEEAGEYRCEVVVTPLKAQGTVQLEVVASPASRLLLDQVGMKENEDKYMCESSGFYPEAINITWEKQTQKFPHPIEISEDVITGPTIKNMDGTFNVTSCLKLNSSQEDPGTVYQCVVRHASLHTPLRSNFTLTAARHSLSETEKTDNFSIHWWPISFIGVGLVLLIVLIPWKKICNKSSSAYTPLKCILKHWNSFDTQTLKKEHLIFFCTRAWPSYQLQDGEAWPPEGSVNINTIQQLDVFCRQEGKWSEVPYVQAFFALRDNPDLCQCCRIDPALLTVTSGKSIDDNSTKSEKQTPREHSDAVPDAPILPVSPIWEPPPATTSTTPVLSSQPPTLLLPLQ
In words: immunohistochemistry on acetone-fixed cytospins, mAb at 5 µg/ml. As to the method: Acetone-fixed cytospins of a 1:1 mixture of Ba/F3 and Ba/F3-B7-H6 cells were stained using the Dual Envision+System-HRP (Dako). After blocking endogenous peroxidase activity, cytospins were blocked with 10% goat serum and 0.1 mg/ml human
IgG. […] After incubation with 3,3′-diaminobenzidine (DAB) substrate solution, cell nuclei were counterstained with Hematoxylin and mounted cyotospins were analyzed by light microscopy.

Assay [2] addresses T2, B7-H6-Ig-fusionprotein consisting of the extracellular domain of B7-H6 fused to an IgG1-Fc domain (human, UniProt Q68D85 25-267).
T2 construct: Junction residues from restriction sites are not given; also called B7-H6-Ig-FP
T2 sequence: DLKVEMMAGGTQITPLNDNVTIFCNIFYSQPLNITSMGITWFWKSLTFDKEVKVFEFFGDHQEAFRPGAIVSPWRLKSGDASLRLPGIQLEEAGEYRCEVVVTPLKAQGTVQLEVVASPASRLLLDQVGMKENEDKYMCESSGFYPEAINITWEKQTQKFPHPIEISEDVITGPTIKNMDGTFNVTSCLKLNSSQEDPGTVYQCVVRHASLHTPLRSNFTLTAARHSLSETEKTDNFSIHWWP
As to the kind of experiment: ELISA.

B1: anti-B7-H6 monoclonal antibody (mAb) 1.18 (antibody, V domains shown)
VH: DVKLVESGGGLVKPGGSLKLSCAASGFTFSSYTMSWVRQTPEKRLEWVATINNGGSYTYYPDSVKGRFTISRDNAKNTLYLQMSSLKSEDTAIYYCYGYDPAWFAYWGQGTLVTVSA
VL: QAVVTQESALTTSPGETVTLTCRSSTGAVTTSNYANWVQEKPDHLFTGLIGGTNNRAPGVPARFSGSLIGDKAALTITGAQTEDEAIYFCALWYSNHWVFGGGTKLTVLG
For the molecule B1, the binding result in assay [1] and in assay [2] was “binds” each time.
